Laboratory results reported in article PMC4901202, “Sld3-MCM Interaction Facilitated by Dbf4-Dependent Kinase Defines an Essential Step in Eukaryotic DNA Replication Initiation” (Frontiers in Microbiology, 2016).

Molecular target: T1, 6His-Sld3 (budding yeast, UniProt P53135 1-668)
T1 construct: Sld3, budding yeast; Tag end read from the printed order 6His-SLD3; also called pET28a-SLD3; source: E. coli BL21 (DE3) CodonPlus RIL, purified (Ni2+ columns); not shown: 6His, N-terminal, kept
T1 sequence (looked up): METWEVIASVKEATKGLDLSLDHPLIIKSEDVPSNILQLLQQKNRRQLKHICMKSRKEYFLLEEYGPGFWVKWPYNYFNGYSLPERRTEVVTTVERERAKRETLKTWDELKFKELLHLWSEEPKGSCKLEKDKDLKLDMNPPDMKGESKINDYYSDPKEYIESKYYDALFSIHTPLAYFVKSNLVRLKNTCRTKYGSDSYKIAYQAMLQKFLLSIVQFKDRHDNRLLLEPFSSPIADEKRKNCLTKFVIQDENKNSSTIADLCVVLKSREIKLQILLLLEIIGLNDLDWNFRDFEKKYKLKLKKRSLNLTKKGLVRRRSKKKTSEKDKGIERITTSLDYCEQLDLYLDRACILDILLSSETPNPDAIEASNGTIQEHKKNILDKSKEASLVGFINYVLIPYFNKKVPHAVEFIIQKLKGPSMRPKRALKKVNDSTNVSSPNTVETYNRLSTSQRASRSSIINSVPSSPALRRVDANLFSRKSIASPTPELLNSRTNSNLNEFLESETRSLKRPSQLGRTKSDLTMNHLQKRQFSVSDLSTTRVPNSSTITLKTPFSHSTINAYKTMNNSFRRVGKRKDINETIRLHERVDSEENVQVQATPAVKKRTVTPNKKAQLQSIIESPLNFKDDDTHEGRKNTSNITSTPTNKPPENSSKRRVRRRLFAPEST
Test: pull-down; 2 μg 6His-Sld3 and 5 μg GST-Mcm6 or GST-Mcm2 with glutathione-Sepharose beads; 40 mM Tris-HCl pH 7.5, 100 mM NaCl, 0.1 mM EDTA, 10% glycerol, 0.1% Triton X-100, 1 mM DTT, 1 mg/ml BSA; 1 h at 4°C; immunoblots with anti-His and anti-GST
Conditions: both partners purified

B1: GST-Mcm2N (1–390) (domain or fragment, budding yeast, UniProt P29469 1-390, looked up)
chain: MSDNRRRRREEDDSDSENELPPSSPQQHFRGGMNPVSSPIGSPDMINPEGDDNEVDDVPDIDEVEEQMNEVDLMDDNMYEDYAADHNRDRYDPDQVDDREQQELSLSERRRIDAQLNERDRLLRNVAYIDDEDEEQEGAAQLDEMGLPVQRRRRRRQYEDLENSDDDLLSDMDIDPLREELTLESLSNVKANSYSEWITQPNVSRTIARELKSFLLEYTDETGRSVYGARIRTLGEMNSESLEVNYRHLAESKAILALFLAKCPEEMLKIFDLVAMEATELHYPDYARIHSEIHVRISDFPTIYSLRELRESNLSSLVRVTGVVTRRTGVFPQLKYVKFNCLKCGSILGPFFQDSNEEIRISFCTNCKSKGPFRVNGEKTVYRNYQRVTL
notes: Mcm2, budding yeast, residues 1-390; Tag end read from the printed order GST-mcm2(1–390); also called GST-Mcm2 (1–390); pGEX-4T -1-mcm2(1–390); source: E. coli BL21 (DE3) CodonPlus RIL, purified as previously described (Quan et al., 2015); not shown: GST, N-terminal, kept
B1: binds.
